Experimental data published in patent publication US11180767B2, “Protease deficient filamentous fungal cells and methods of use thereof” (GLYKOS FINLAND OY, priority 2012, dated 2021).

Assays:
green fluorescent casein = test: Total protease activity of culture supernatants against fluorescent casein; assay type: biochemical; conditions: 1 L fermentor, pH 5.5, casein FL
Protocol: The total protease activity of culture supernatant from the quadruple deletion strain M307 was then measured and compared with culture supernatants from the triple deletion strain M277 and the wild type strain M124. Each strain was grown in 2 liter shake flasks with 300 ml TrMM containing 40 g/l lactose, 20 g/l spent grain extract, and 100 mM PIPPS at pH 5.5. Day 7 supernatant samples were taken for total protease assay. The total protein concentrations of the supernatants were measured using the BCA assay with bovine immunoglobulin as the standard. The supernatants were diluted serially 1:2 in sodium citrate buffer at pH 5.5. […] The fluorescence was measured after 1 hour at 485 nm excitation and 530 nm emission.
The full length antibody yield calculated was 20% higher in the gap1 deletion strain from the day 6 sample. […] From the fermentor supernatants, the total protease activity against casein was measured. […]
The protein concentrations were determined from all supernatant samples from day 2-7. […] The fluorescence from the wells was measured after 2, 3, and 4 hours. The readings were done on the Varioskan fluorescent plate reader using 485 nm excitation and 530 nm emission.
The protease activity from the cultivations listed in Table 22.4 was measured in order to determine how the total protease activities were affected by the RNAi. […]

[1] = tested on: tryptic and chymotryptic proteases; test: In vitro inhibitor treatment: rituximab heavy chain degradation in M44 supernatant; assay type: biochemical, Trichoderma reesei; conditions: 100 μM chymostatin or 1 mg/ml SBTI; M44 supernatant 6 mg/ml, pH 5.5
Protocol: Based on the knowledge that the heavy chain is cleaved by tryptic and chymotryptic proteases, inhibitors of these two enzyme classes were tested against antibody degradation both in vitro and in culture experiments utilizing an antibody producing T. reesei strain. The inhibitors soybean trypsin inhibitor (SBTI) and chymostatin were tested, as they have been previously shown in in vitro experiments to stabilize antibody heavy chains.
Chymostatin and SBTI were analyzed in vitro with culture supernatant. Supernatant from a fed batch fermentor culture was diluted to 6 mg/ml with sodium citrate buffer pH 5.5 (pH 5.5; 28° C.; 20 g/L spent grain extract, 60 g/L lactose). […] The strain was grown in Trichoderma minimal medium supplemented with 20 g/l spent grain extract and 60 g/l lactose at pH 5.5 and 28° C.
To this diluted supernatant 0.05 μg μl of rituximab, 100 μM chymostatin, 1 mg/ml SBTI, or a combination of both inhibitors was added in a total volume of 50 μl and sampled at 0, 1, and 19 hours to assess the early and late degradation of the rituximab antibody heavy chain. The resulting heavy chain products were analyzed by immunoblot using and anti-heavy chain AP conjugated antibody (Sigma #A3188) diluted 1:30,000 in TBST (FIG. 35). […] Additional fragments were generated after 19 hours, the two major products remained.

B1: SBTI: soybean trypsin inhibitor, trypsin and subtilisin inhibitor (protein)
chain: DFVLDNEGNPLENGGTYYILSDITAFGGIRAAPTGNERCPLTVVQSRNELDKGIGTIISSPYRIRFIAEGHPLSLKFDSFAVIMLCVGIPTEWSVVEDLPEGPAVKIGENKDAMDGWFRLERVSDDEFNNYKLVFCPQQAEDDKCGDIGISIDHDDGTRRLVVSKNKPLVVQFQKLDKESL
- protease activity of M507 culture supplemented with inhibitor (green fluorescent casein): protease activity also dropped from day 6 until day 8
- rituximab heavy chain fragment formation [1]: inhibited the 38 kD fragment from forming
